According to paper PMC6614843, “Stability and sub-cellular localization of DNA polymerase β is regulated by interactions with NQO1 and XRCC1 in response to oxidative stress” (Nucleic Acids Research, 2019):

Columns and labels:
[1] = biological target: Polβ(T304I), purified recombinant (human, UniProt P06746 1-335, T304I); experiment: SPR; OpenSPR localized SPR (Nicoya); Polβ(WT) or Polβ(T304I) covalently coupled (EDC/NHS) to a carboxyl sensor; XRCC1 injected at 10, 100 nM, 1, 2, 5 and 10 μM; 25 mM HEPES pH 8.0, 150 mM NaCl, 200 mM MgCl2, 0.1% Tween 20, 1 mM TCEP; KD from response versus concentration (affinity model); settings: both partners purified
[2] = biological target: Polβ(WT), purified recombinant (human, UniProt P06746 1-335); experiment: as above; settings: both partners purified

mean fold decrease of binding affinity (KD) against Polβ(WT) [1]: 6.18 fold
binding result [2]: binds
B1: NTD-XRCC1(1-151)-His (domain or fragment)
chain: MPEIRLRHVVSCSSQDSTHCAENLLKADTYRKWRAAKAGEKTISVVLQLEKEEQIHSVDIGNDGSAFVEVLVGSSAGGAGEQDYEVLLVTSSFMSPSESRSGSNPNRVRMFGPDKLVRAAAEKRWDRVKIVCSQPYSKDSPFGLSFVRFHS
notes: N-terminal domain of XRCC1, residues 1-151; human by the plasmid's name (hXRCC1); The name puts the His tag after the fragment; also called N-terminal fragment of XRCC1
